The values below come from patent US20020165132A1 (published 2002).

Positions of bridges follow the written chain, without caps; N, C: chain ends. Non-standard residues stand in square brackets, D forms with d. No end group written: not given here. AlaL = alanine half of a lanthionine (monosulfide) bridge

The target in experiment [1] is T1, µ-receptor (guinea pig ileum preparation) (guinea pig). Nature of the experiment: cell-based or functional assay.
For experiment [2], the target named is T1, µ-receptor (guinea pig ileum …). Nature of the experiment: cell-based or functional assay. This is another data set of the same source.
Experiment [3] concerns the target SSTR2 Receptor (cloned somatostatin receptor). Nature of the experiment: inhibition of radioligand binding to cloned SSTR2.

SSTR2 Receptor (cloned somatostatin receptor), sequence (P30875 whole entry): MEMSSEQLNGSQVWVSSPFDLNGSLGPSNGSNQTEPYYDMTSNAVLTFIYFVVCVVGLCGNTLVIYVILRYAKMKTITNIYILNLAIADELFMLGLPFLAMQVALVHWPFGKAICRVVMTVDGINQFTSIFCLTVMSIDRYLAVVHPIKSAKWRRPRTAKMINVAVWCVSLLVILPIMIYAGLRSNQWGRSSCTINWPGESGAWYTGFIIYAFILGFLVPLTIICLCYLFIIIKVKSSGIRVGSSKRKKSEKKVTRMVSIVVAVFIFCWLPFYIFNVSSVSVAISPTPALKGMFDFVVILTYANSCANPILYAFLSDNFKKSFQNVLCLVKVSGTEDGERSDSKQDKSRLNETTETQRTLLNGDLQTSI

B1: Tyr-c[D-AlaL-Gly-Phe-L-AlaL]-NH2 (peptide)
peptide: Y[dAlaL]GF[AlaL]-NH2
modifications: bridge 2-5; not fully specified (bridges); printed as Tyr-c[D-AlaL-Gly-Phe-L-AlaL]-NH2
In the case of B1, the “bioactivity at the GPI relative to [Leu^5]-enkephalin” value in experiment [1] was 400 fold. In addition, the “GPI IC50” value in experiment [2] was found to be 0.62 nM.

B2: c[AlaL3, AlaL14]-Somatostatin-14 (peptide)
chain: AG[AlaL]KNFFWKTFTS[AlaL]
modifications: bridge 3-14; not fully specified (bridges); printed as c[AlaL3, AlaL14]-Somatostatin-14
As to B2, in experiment [3], the IC50 (usually the concentration that gives 50% inhibition) is 0.3 nM.

B3: Tyr-c[D-AlaL-Gly-Phe-L-AlaL]-OH (peptide)
peptide: Y[dAlaL]GF[AlaL]-OH
modifications: bridge 2-5; not fully specified (bridges); printed as Tyr-c[D-AlaL-Gly-Phe-L-AlaL]-OH
As to B3, the “GPI IC50” value in experiment [2] turned out to be 0.45 nM.
